# Laboratory results taken from patent US20120231006A1 (Amgen, published 2012).
# Key:
# [1] = target: T1, rat Orai1 (rat, UniProt Q5M848 1-304); experiment: FACS, 293EBNA transfectants with STIM1, thapsigargin
# T1 construct: co-expressed with rat STIM1; also called rOrai1
# Description: (§1) FIG. 13A-B illustrates the results of FACS analysis showing binding to human Orai1 expressed on the surface of HEK-293-EBNA cells that were treated with 2 μM Thapsigargin. HEK-293-EBNA cells were transiently transfected with human Orai1 and human STIM1, mouse Orai1 and mouse STIM1, rat Orai1 and rat STIM1 and control empty vector. Transfected cells were stained first with recombinant monoclonal antibodies then counter-stained with a secondary phycoerythrin-labeled Gt anti-Hu IgG F(ab′)₂ or Gt anti-Mu IgG F(ab′)₂ antibody fragment, as appropriate, and visualized using FACS.
# (§2) FACS binding analysis. Transfected 293EBNA cells transiently expressed hOrai1, human Orai2, or human Orai3 (results of binding comparison in FIG. 11A-B), or hOrai1(S218G) (results of binding comparison in FIG. 12A-B); or hOrai1 and hSTIM1; mOrai1 and mouse STIM1; or rat Orai1 and rat STIM1 (results of binding comparison in FIG. 13). The transfected cells were harvested at 48 hours post-transfection. Cells transfected with pcDNA3.1 were used as negative controls. Cells were washed once with ice-cold 1×PBS, resuspended in ice-cold FACS buffer (1×D-PBS+2% goat serum), and 2×10⁵ cells in […] were stained per antibody combination. All antibody incubation steps were performed on ice for 1 hour. […] Next, the unlabelled antibody was detected using goat F(ab′)₂ anti-mouse or anti-human IgG-phycoerythrin (IgG-PE), followed by a wash with 200 μL of ice-cold FACS buffer before flow cytometry analysis. Unstained cells and cells stained with detecting antibodies were used as negative controls. The values of relative level of fluorescence were calculated using FCS Express (De Novo Software) and mean values were calculated using log-transformed data (geometric mean). Purified mAbs were assessed by FACS assay for their ability to specifically bind human Orai1, Orai2 and Orai3 proteins expressed on HEK-293 cells.
# [2] = target: T2, mouse Orai1 (mouse, UniProt Q8BWG9 1-304); experiment: as above
# T2 construct: co-expressed with mouse STIM1; also called mOrai1
# T2 sequence (Q8BWG9 whole entry): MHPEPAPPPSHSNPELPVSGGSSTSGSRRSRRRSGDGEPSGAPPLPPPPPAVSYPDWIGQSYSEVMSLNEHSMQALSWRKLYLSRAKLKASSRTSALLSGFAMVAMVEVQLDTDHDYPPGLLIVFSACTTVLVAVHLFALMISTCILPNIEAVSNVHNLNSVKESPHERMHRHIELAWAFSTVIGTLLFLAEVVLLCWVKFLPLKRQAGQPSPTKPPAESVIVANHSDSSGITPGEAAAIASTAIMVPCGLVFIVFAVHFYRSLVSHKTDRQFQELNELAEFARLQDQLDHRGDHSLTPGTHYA
# Description: as §1, §2
# [3] = target: T3, hOrai1-mOrai1 ECL2 (AANVST) protein (human/mouse chimera, UniProt Q96D31 1-301); experiment: FACS, 293EBNA; parameters: concentration or dose not given beside the values
# T3 construct: also called Ch
# T3 sequence (Q96D31 other isoform, or with tags, fused parts or gaps): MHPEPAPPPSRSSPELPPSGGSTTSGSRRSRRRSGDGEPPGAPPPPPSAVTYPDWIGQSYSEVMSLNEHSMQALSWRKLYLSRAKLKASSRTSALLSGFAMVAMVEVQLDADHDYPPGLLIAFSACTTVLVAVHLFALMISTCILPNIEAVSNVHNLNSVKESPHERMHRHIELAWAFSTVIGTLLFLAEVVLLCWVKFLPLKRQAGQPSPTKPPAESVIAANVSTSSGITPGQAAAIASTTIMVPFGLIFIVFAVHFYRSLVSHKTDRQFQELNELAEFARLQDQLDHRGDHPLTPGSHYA
# Excerpt: (§3) FIG. 17A-D illustrates the results of FACS analysis showing binding to the indicated mOrai1-hOrai1 ECL2 chimeric mutants expressed on the surface of HEK-293-EBNA cells. Transfected cells were stained first with recombinant monoclonal antibodies then counter-stained with a secondary phycoerythrin-labeled goat (“Gt”) anti-human (“Hu”) IgG F(ab′)₂ antibody fragment and visualized using FACS.
# (§4) Representative results of FACS analysis of binding to the mutant hOrai1-mOrai1 ECL2 chimera described above by exemplary anti-hOrai1 antibodies of the present invention are shown in FIG. 17A-D, Table 10A and Table 10B below. Table 10A (Campaign 1) and Table 10B (Campaign 2) show the gain in binding ability of exemplary monoclonal antibodies to hOrai 1-mOrai 1 ECL2 chimera mutants as determined by FACS.
# [4] = target: T4, hOrai1-mOrai1 ECL2 chimeric protein (human/mouse chimera, UniProt Q96D31 1-301); experiment: FACS, 293EBNA; parameters: concentration or dose not given beside the values
# T4 construct: human Orai1 with mouse ECL2; also called Ch
# T4 sequence (Q96D31 other isoform, or with tags, fused parts or gaps mutant): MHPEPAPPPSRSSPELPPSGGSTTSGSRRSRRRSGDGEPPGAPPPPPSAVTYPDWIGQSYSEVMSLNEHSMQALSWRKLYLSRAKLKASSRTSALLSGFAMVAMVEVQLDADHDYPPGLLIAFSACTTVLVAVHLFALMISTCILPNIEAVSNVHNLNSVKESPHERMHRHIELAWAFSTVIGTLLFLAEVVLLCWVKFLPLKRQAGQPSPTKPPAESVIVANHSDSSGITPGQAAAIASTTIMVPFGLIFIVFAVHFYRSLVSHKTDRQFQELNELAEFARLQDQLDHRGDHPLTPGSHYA
# Excerpt: as §3, §4
# [5] = target: T5, hOrai1-mOrai1 ECL2 (PASGAA) protein (human/mouse chimera, UniProt Q96D31 1-301); experiment: FACS, 293EBNA; parameters: concentration or dose not given beside the values
# T5 construct: also called Ch
# T5 sequence (Q96D31 other isoform, or with tags, fused parts or gaps): as the sequence (Q96D31 other isoform, or with tags, fused parts or gaps mutant) above, with A216P, E217A, V219G, I220A, V221A counted along it
# Excerpt: as §3, §4
# [6] = target: T6, hOrai1-mOrai1 ECL2 (…) protein (human/mouse chimera, UniProt Q96D31 1-301); experiment: FACS, 293EBNA; parameters: concentration or dose not given beside the values
# T6 construct: also called Ch
# T6 sequence (Q96D31 other isoform, or with tags, fused parts or gaps): as the sequence (Q96D31 other isoform, or with tags, fused parts or gaps mutant) above, with A216P, E217A, V219G, I220A, V221A, H224V, D226T counted along it
# Excerpt: as §3, §4
# [7] = target: T7, hOrai1-mOrai1 ECL2 (VST) protein (human/mouse chimera, UniProt Q96D31 1-301); experiment: FACS, 293EBNA; parameters: concentration or dose not given beside the values
# T7 construct: also called Ch
# T7 sequence (Q96D31 other isoform, or with tags, fused parts or gaps): as the sequence (Q96D31 other isoform, or with tags, fused parts or gaps mutant) above, with H224V, D226T counted along it
# Excerpt: as §3, §4
# [8] = target: T8, hOrai1-mOrai1 ECL2 (GAA) protein (human/mouse chimera, UniProt Q96D31 1-301); experiment: FACS, 293EBNA; parameters: concentration or dose not given beside the values
# T8 construct: also called Ch
# T8 sequence (Q96D31 other isoform, or with tags, fused parts or gaps): as the sequence (Q96D31 other isoform, or with tags, fused parts or gaps mutant) above, with V219G, I220A, V221A counted along it
# Excerpt: as §3, §4
# T1 sequence (Q5M848 whole entry): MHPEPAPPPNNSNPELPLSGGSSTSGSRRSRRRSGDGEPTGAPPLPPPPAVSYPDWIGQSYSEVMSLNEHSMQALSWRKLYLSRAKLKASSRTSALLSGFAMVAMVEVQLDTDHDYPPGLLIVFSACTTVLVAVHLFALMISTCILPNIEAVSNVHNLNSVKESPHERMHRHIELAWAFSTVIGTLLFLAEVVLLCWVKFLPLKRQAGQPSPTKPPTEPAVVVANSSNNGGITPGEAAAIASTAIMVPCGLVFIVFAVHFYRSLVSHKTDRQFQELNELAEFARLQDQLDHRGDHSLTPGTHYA
binding result [1],binding result [2],percent of control (POC) of FACS Geo Mean [3],percent of control (POC) of FACS Geo Mean [4],percent of control (POC) of FACS Geo Mean [5],percent of control (POC) of FACS Geo Mean [6],percent of control (POC) of FACS Geo Mean [7],percent of control (POC) of FACS Geo Mean [8],Binder
no binding (tested: 1 µg),no binding (tested: 1 µg),–,–,–,–,–,–,"mAb 2B4.1 (antibody, human IgG2, lambda, V domains shown) VH: QVQLVQSGAEVKKPGASVKVSCKASGYTFTDYYMHWVRQAPGQGLEWMGWINPNSGGTNYVQKFQDRVTMTRDTSITTAYMELTRLRSDDTAVYYCAREEGDYGMDVWGQGTTVTVSS VL: QSVLTQPPSVSGAPGQRVTISCTGSNSNIGTGYDVHWYQKLPGTAPRLLIYSHFNRPSGVPDRFSGSTSGTSASLAITGLQAEDEADYYCQSYDSSLSGSVFGGGTKLTVLG"
no binding (tested: 1 µg),no binding (tested: 1 µg),< 1%,< 1%,< 1%,< 1%,< 1%,< 1%,"mAb 5F2.1 (antibody, human IgG2, lambda, V domains shown, fully human IgG2 lambda, Campaign 2) VH: QVQLVQSGAEVKKPGASVKVSCKASGYTFTDYYMNWVRQAPGQGLEWMGWINPNSGGTHYAQKFQGRVTMTRDTSISTAYMELSRLRSDDTAVYYCAREYGGYSDWFDPWGQGTLVTVSS VL: QSVLTQPPSVSGAPGQRVTISCTGSRSNIGAGYDVHWYQQLPRTAPKLLIYDNSNRPSGVPDRFSGSKSGSSASLAITGLQAEDEADYYCQSYDNSLSDSVLIGGGTKLTVLG"
no binding (tested: 1 µg),no binding (tested: 1 µg),< 1%,< 1%,< 1%,< 1%,< 1%,< 1%,"mAb 5F7.1 (antibody, human IgG2, lambda, fully human IgG2 lambda, Campaign 2) heavy: QVQLVQSGAEVKKPGASVKVPCKASGYTFTDYYINWVRQAPGQGLEWMGWINPNNGGTNYAQKFQGRVTMTRDTSISTAYMELRRLRSDDTAVYYCARERGGYEDWFDPWGQGTLVTVSSASTKGPSVFPLAPCSRSTSESTAALGCLVKDYFPEPVTVSWNSGALTSGVHTFPAVLQSSGLYSLSSVVTVPSSNFGTQTYTCNVDHKPSNTKVDKTVERKCCVECPPCPAPPVAGPSVFLFPPKPKDTLMISRTPEVTCVVVDVSHEDPEVQFNWYVDGVEVHNAKTKPREEQFNSTFRVVSVLTVVHQDWLNGKEYKCKVSNKGLPAPIEKTISKTKGQPREPQVYTLPPSREEMTKNQVSLTCLVKGFYPSDIAVEWESNGQPENNYKTTPPMLDSDGSFFLYSKLTVDKSRWQQGNVFSCSVMHEALHNHYTQKSLSLSPGK light: QSVLTQPPSVSGAPGQRVTISCTGSSSNIGAGFDVHWYQQLPVTAPKLLIYGNRNRPSGVPARFSGSKSGTSASLAITGLQAEDEAVYYCQSYDSSLTVFGGGTKLTVLGQPKANPTVTLFPPSSEELQANKATLVCLISDFYPGAVTVAWKADGSPVKAGVETTKPSKQSNNKYAASSYLSLTPEQWKSHRSYSCQVTHEGSTVEKTVAPTECS"
no binding (tested: 1 µg),no binding (tested: 1 µg),< 1%,< 1%,< 1%,< 1%,< 1%,< 1%,"mAb 5A1.1 (antibody, human IgG2, fully human, Campaign 2; lambda CL-1) heavy: QVQLVQSGAEVKKPGASVKVPCKASGYTFTDYYINWVRQAPGQGLEWMGWINPNNGGTNYAQKFQGRVTMTRDTSISTAYMELRRLRSDDTAVYYCARERGGYEDWFDPWGQGTLVTVSSASTKGPSVFPLAPCSRSTSESTAALGCLVKDYFPEPVTVSWNSGALTSGVHTFPAVLQSSGLYSLSSVVTVPSSNFGTQTYTCNVDHKPSNTKVDKTVERKCCVECPPCPAPPVAGPSVFLFPPKPKDTLMISRTPEVTCVVVDVSHEDPEVQFNWYVDGVEVHNAKTKPREEQFNSTFRVVSVLTVVHQDWLNGKEYKCKVSNKGLPAPIEKTISKTKGQPREPQVYTLPPSREEMTKNQVSLTCLVKGFYPSDIAVEWESNGQPENNYKTTPPMLDSDGSFFLYSKLTVDKSRWQQGNVFSCSVMHEALHNHYTQKSLSLSPGK VL: QSVLTQPPSVSGAPGQRVTISCTGSSSNIGAGFDVHWYQQLPVTAPKLLIYGNRNRPSGVPARFSGSKSGTSASLAITGLQAEDEAVYYCQSYDSSLTVFGGGTKLTVL"

# Second part, the binder before the results:
Binder,binding result [1],binding result [2],percent of control (POC) of FACS Geo Mean [3],percent of control (POC) of FACS Geo Mean [4],percent of control (POC) of FACS Geo Mean [5],percent of control (POC) of FACS Geo Mean [6],percent of control (POC) of FACS Geo Mean [7],percent of control (POC) of FACS Geo Mean [8]
"mAb 5A4.2 (antibody, human IgG2, lambda, V domains shown, fully human IgG2 lambda, Campaign 2) VH: QVQLVQSGAEVKKPGASVKVSCKASGYTFTDYYMNWVRQAPGQGLEWMGWINPNSGGTKYAQKFQGRVTMTRDTSIRTAYMELSRLRSDDTAVYYCSREYGGNSDWFDPWGQGTLVTVSS VL: QSVLTQPPSVSGAPGQRVTISCTGSSSNIGAGYDVHWYQQLPGTAPKLLIYGNSNRPSGVPDRFSGSKSGTSASLAITGLQAEDEADYYCQSYDNRLSDSVVIGGGTKLTVQG",no binding (tested: 1 µg),no binding (tested: 1 µg),< 1%,< 1%,< 1%,< 1%,< 1%,< 1%
"mAb 5B5.2 (antibody, human IgG2, lambda, V domains shown, fully human IgG2 lambda, Campaign 2; same chains as 5B5.1) VH: QVQLVQSGAEVKKPGASVKVSCKASGYTFTDYYINWVRQAPGQGLEWMGWINPNSGGTDYAQKFQGRVTMTRDTSIRTAYMELNRLTSDDTAVYYCAREYGGYEDWFDPWGQGTLVTVSS VL: QSVLTQPPSVSGAPGQRVTISCTGSNSNIGAGFDVHWYQQLPGTVPKLLIYGNNNRPSGVPDRFSGSKSGTSASLAITGLQAEDEADYYCQSYDSRLTVFGGGTKLTVLG",no binding (tested: 1 µg),no binding (tested: 1 µg),< 1%,< 1%,< 1%,< 1%,< 1%,< 1%
"mAb 5B1.1 (antibody, human IgG2, lambda, V domains shown, fully human IgG2 lambda, Campaign 2; also called mAb 5Bl1.1) VH: QVQLVQSGAEVKKPGASVKVSCKASGYTFTDYYINWVRQAPGQGLEWMGWINPNSGGSSYAQKFQGRVTMTRDTSISTAHMELIRLRSDDTAVYYCARERGGIEDWFDPWGQGTLVTVSS VL: QSVLTQPPSVSGAPGQRVTISCTGSSSNIGAGYDVHWYQQLPGTAPKLLIYGNSNRPSGVPDRFSGSKSGTSASLAITKFQAEDEAVYYCQSYGSGLSGVVFGGGTKLTVLG",no binding (tested: 1 µg),no binding (tested: 1 µg),< 1%,< 1%,< 1%,< 1%,< 1%,< 1%
"mAb 5C1.1 (antibody, human IgG2, lambda, V domains shown, fully human IgG2 lambda, Campaign 2) VH: QVQLVQSGAEVKKPGASVKVSCKASGYTFTDYYMNWVRQAPGQGLEWMGWINPNSGGTKYAQKFQGRVTMTRDTSIRTAYMELSRLRSDDTAVYYCAREYGGNSDWFDPWGQGTLVTVSS VL: QSVLTQPPSVSGAPGQRVTISCTGSSSNIGAGYDVHWYQQLPGTAPKLLIYGNSNRPSGVPDRFSGSKSGTSASLAITGLQAEDEADYYCQSYDNRLSDSVVIGGGTKLAVQG",no binding (tested: 1 µg),no binding (tested: 1 µg),< 1%,< 1%,< 1%,< 1%,< 1%,< 1%
